1 molecule from PMC8934638, “H3K36 methylation and DNA-binding both promote Ioc4 recruitment and Isw1b remodeler function” can be followed below.

What all share (assay): EMSA; EMSA; 15 fmol NCP (30 fmol unmodified NCP) per reaction; 5% native PAGE (37.5:1) in 0.4x TBE, 2% glycerol; binding buffer, pH and temperature not given (as in cited work)
For orientation: In EMSA bound probe runs differently from free probe, usually more slowly.

One data set concerns the target T1, Ioc4 PWWP 2KE (Saccharomyces cerevisiae, UniProt Q04213 1-178, K149E;K150E).
T1 sequence: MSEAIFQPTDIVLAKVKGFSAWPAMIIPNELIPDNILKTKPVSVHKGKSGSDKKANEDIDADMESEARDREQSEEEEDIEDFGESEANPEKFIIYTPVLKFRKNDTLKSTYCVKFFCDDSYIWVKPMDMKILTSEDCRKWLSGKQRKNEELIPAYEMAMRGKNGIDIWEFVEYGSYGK
Particulars: protein: recombinant; tags: N-terminal 6xHis; label: Cy5 on sense strand; blunt.

In another data set the target is T2, Ioc4 dPWWP (Saccharomyces cerevisiae, UniProt Q04213 179-475, del1-178).
T2 sequence: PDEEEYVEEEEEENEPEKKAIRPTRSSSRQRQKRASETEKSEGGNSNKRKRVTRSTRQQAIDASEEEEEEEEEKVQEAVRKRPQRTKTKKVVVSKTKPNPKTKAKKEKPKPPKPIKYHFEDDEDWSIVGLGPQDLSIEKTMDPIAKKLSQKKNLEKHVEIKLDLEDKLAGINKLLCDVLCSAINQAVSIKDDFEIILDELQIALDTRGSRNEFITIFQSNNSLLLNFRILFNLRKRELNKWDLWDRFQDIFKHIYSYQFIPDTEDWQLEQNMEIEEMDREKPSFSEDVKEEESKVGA
Particulars: protein: recombinant; tags: N-terminal 6xHis-MBP; label: Cy5 on sense strand; blunt.

The target of another data set is T3, Ioc4 PWWP 2KA (Saccharomyces cerevisiae, UniProt Q04213 1-178, K149A;K150A).
T3 sequence: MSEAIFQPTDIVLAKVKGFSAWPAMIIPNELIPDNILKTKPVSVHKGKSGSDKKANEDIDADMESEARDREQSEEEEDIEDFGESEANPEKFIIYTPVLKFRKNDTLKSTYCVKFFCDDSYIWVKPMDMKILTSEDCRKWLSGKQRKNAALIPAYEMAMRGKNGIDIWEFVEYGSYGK
Particulars: protein: recombinant; label: Cy5 on sense strand; blunt.

A further data set deals with T4, Ioc4 2KE (Saccharomyces cerevisiae, UniProt Q04213 1-475, K149E;K150E).
T4 sequence: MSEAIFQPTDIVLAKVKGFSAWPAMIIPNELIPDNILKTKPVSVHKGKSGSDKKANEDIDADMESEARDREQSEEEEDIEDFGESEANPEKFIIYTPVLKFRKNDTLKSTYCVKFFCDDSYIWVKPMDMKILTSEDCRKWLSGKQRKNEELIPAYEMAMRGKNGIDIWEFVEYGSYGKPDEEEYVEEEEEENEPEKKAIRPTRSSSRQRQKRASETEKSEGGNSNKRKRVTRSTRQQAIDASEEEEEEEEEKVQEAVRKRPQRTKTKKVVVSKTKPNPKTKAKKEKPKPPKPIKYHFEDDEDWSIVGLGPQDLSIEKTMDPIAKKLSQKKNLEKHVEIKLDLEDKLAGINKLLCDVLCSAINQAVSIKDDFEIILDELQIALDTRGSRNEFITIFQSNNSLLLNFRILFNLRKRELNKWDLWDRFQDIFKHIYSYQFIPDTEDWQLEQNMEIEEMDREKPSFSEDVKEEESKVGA
Particulars: protein: recombinant; tags: N-terminal 6xHis-MBP; label: Cy5 on sense strand; blunt.

B1: dsDNA 30 bp (601-derived EMSA probe) (dsDNA)
DNA 1: GGCAAGGTCGCTGTTCAATACATGCACAGG
DNA 2: CCTGTGCATGTATTGAACAGCGACCTTGCC
Usually Kd stands for the concentration at which binding is half-saturated. Regarding B1, the binding result with Ioc4 PWWP 2KE and with Ioc4 PWWP 2KA was “no binding” in each case. Further, the results for the Kd in the data set with Ioc4 dPWWP and with Ioc4 2KE were 121 nM and 76 nM, respectively.
